The record followed here is PMC9163516.

This experiment addresses T1, biotinylated avi-tagged TβRI, P36897.
T1 chain: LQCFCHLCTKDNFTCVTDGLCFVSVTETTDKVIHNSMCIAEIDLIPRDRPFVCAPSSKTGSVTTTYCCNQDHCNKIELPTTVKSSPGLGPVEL
Kind of experiment: SPR; BIAcore X100; biotinylated avi-tagged TβRI or TβRII captured on neutravidin-coated CM-5 chip (results say streptavidin) at 50-150 RU; TGM constructs injected as 2-fold dilution series in 25 mM Hepes, pH 7.4, 150 mM NaCl, 0.005% P20, 100 μl/min; 1:1 kinetic fit of a single injection series.

B1: TGM-D2 (domain or fragment)
chain: RCSPLPTNDTVSFEYLKATVNPGIIFNITVHPDASGKYPELTYIKRICKNFPTDSNVQGHIIGMCYNAEWQFSSTPTCPAS
modifications: not checked
As for B1, the Kd was determined as 310 nM, the koff turned out to be 0.091 s⁻¹ and the kon stood at 300000 M⁻¹ s⁻¹.

B2: TGM-D12 (domain or fragment)
chain: DDSGCMPFSDEAATYKYVAKGPKNIEIPAQIDNSGMYPDYTHVKRFCKGLHGEDTTGWFVGICLASQWYYYEGVQECDDRRCSPLPTNDTVSFEYLKATVNPGIIFNITVHPDASGKYPELTYIKRICKNFPTDSNVQGHIIGMCYNAEWQFSSTPTCPAS
modifications: not checked
As to B2, the Kd was found to be 24 nM, the koff is 0.0016 s⁻¹ and the kon worked out at 67000 M⁻¹ s⁻¹.
